# Experimental data from PMC4574919, “Structural and Biochemical Analysis of a Single Amino-Acid Mutant of WzzBSF That Alters Lipopolysaccharide O-Antigen Chain Length in Shigella flexneri” (PLoS ONE, 2015).
# How the values were obtained:
# [1] = target: the molecule itself; test: crystal structure; hanging drop, 18°C, 0.1 M citric-acid/HEPES/CHES pH 7.3, 18% PEG 400, 18% PEG 8000, 0.1 M MgCl2; protein 12-13 mg/ml; open trimer in the crystal
# [2] = target: the molecule itself; test: SDS-PAGE and immunoblot of non-cross-linked cells; whole S. flexneri cells incubated without formaldehyde (control), samples heated at 60°C for 5 min, 12% SDS-PAGE, immunoblot with anti-WzzBSF
Protein,stoichiometry N [1],stoichiometry N [2]
"periplasmic domain of WzzBSF (residues 54-295) (domain or fragment, WzzBSF (polysaccharide co-polymerase, O-antigen chain length regulator) of Shigella flexneri, periplasmic domain, residues 54-295; Cloned in pMCSG7 by ligation-independent cloning; also called wild-type WzzBSF periplasmic domain; source: E. coli BL21(DE3), autoinduction, purified (HisTrap, TEV cleavage, reverse HisTrap, Superdex 200 SEC); not shown: His6, N-terminal, cleaved) EKWTSTAIITQPDVGQIAGYNNAMNVIYGQAAPKVSDLQETLIGRFSSAFSALAETLDNQEEPEKLTIEPSVKNQQLPLTVSYVGQTAEGAQMKLAQYIQQVDDKVNQELEKDLKDNIALGRKNLQDSLRTQEVVAQEQKDLRIRQIQEALQYANQAQVTKPQVQQTEDVTQDTLFLLGSEALESMIKHEATRPLVFSPNYYQTRQNLLDIEKLKFDDLDIHAYRYVMKPTLPIRRDSPKKA",3,–
"periplasmic domain of WzzBSF A107P (residues 54-295) (domain or fragment, WzzBSF of Shigella flexneri, periplasmic domain, residues 54-295, with the mutation A107P found by random mutagenesis; Same construct limits as m1 ('the equivalent construct containing the A107P mutation'); also called A107P mutant; source: E. coli BL21(DE3), autoinduction, purified (HisTrap, TEV cleavage, reverse HisTrap, Superdex 200 SEC); not shown: His6, N-terminal, cleaved) EKWTSTAIITQPDVGQIAGYNNAMNVIYGQAAPKVSDLQETLIGRFSSAFSALPETLDNQEEPEKLTIEPSVKNQQLPLTVSYVGQTAEGAQMKLAQYIQQVDDKVNQELEKDLKDNIALGRKNLQDSLRTQEVVAQEQKDLRIRQIQEALQYANQAQVTKPQVQQTEDVTQDTLFLLGSEALESMIKHEATRPLVFSPNYYQTRQNLLDIEKLKFDDLDIHAYRYVMKPTLPIRRDSPKKA",3,–
"full-length WzzBSF (natural protein, WzzBSF of Shigella flexneri, wzzSF open reading frame in pRMCD30; ~36 kDa; also called wild-type WzzBSF; source: S. flexneri RMA4053 (wzz::kan), from plasmid pRMCD30 (pQE30-based), IPTG-induced, in whole cells) MRVENNNVSGQNHDPEQIDLIDLLVQLWRGKMTIIISVIVAIALAIGYLAVAKEKWTSTAIITQPDVGQIAGYNNAMNVIYGQAAPKVSDLQETLIGRFSSAFSALAETLDNQEEPEKLTIEPSVKNQQLPLTVSYVGQTAEGAQMKLAQYIQQVDDKVNQELEKDLKDNIALGRKNLQDSLRTQEVVAQEQKDLRIRQIQEALQYANQAQVTKPQVQQTEDVTQDTLFLLGSEALESMIKHEATRPLVFSPNYYQTRQNLLDIEKLKFDDLDIHAYRYVMKPTLPIRRDSPKKAITLILAVLLGGMVGAGIVLGRNALRNYNAK",–,2
